This experiment concerns the target recombinant wild-type human alpha-synuclein (human) (UniProt P37840). Nature of the experiment: cell-based or functional assay.

Polo like kinase 2 (PLK2), sequence (Q9NYY3 whole entry): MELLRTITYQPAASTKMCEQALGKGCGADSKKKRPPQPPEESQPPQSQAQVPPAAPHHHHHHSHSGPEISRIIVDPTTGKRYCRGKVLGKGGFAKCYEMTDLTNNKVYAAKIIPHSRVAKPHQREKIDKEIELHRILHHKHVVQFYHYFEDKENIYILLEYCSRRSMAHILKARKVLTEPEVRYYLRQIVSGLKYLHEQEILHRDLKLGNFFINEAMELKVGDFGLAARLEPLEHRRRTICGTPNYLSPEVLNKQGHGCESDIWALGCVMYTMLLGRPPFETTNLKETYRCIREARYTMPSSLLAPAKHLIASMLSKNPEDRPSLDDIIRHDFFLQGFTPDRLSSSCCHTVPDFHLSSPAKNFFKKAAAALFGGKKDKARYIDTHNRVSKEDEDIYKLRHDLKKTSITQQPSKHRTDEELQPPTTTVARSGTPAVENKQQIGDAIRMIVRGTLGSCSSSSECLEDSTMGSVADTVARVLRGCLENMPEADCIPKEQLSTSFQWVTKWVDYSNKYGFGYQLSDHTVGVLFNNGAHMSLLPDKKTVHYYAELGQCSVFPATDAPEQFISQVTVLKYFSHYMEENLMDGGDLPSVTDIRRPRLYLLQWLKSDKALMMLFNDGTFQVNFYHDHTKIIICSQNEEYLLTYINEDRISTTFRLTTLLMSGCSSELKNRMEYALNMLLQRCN
G protein-coupled receptor kinase 6 (GRK6), sequence (P43250 whole entry): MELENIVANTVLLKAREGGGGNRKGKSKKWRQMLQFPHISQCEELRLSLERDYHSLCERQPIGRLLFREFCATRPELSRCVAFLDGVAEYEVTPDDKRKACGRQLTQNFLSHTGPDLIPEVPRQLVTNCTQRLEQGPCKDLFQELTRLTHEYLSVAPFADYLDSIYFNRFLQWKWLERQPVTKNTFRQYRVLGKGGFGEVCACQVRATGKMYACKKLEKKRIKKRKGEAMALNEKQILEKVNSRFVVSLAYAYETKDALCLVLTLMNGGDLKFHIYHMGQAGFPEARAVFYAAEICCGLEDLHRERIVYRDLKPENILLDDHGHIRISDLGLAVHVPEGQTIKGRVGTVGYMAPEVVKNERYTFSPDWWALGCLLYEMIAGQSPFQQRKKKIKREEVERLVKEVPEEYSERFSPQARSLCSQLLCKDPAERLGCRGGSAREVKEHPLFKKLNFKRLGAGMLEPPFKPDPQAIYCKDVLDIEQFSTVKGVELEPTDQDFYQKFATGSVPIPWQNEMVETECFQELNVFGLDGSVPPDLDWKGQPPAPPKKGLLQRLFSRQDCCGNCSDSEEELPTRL
Aortic preferentially expressed gene 1 (APEG1), sequence (Q15772 whole entry): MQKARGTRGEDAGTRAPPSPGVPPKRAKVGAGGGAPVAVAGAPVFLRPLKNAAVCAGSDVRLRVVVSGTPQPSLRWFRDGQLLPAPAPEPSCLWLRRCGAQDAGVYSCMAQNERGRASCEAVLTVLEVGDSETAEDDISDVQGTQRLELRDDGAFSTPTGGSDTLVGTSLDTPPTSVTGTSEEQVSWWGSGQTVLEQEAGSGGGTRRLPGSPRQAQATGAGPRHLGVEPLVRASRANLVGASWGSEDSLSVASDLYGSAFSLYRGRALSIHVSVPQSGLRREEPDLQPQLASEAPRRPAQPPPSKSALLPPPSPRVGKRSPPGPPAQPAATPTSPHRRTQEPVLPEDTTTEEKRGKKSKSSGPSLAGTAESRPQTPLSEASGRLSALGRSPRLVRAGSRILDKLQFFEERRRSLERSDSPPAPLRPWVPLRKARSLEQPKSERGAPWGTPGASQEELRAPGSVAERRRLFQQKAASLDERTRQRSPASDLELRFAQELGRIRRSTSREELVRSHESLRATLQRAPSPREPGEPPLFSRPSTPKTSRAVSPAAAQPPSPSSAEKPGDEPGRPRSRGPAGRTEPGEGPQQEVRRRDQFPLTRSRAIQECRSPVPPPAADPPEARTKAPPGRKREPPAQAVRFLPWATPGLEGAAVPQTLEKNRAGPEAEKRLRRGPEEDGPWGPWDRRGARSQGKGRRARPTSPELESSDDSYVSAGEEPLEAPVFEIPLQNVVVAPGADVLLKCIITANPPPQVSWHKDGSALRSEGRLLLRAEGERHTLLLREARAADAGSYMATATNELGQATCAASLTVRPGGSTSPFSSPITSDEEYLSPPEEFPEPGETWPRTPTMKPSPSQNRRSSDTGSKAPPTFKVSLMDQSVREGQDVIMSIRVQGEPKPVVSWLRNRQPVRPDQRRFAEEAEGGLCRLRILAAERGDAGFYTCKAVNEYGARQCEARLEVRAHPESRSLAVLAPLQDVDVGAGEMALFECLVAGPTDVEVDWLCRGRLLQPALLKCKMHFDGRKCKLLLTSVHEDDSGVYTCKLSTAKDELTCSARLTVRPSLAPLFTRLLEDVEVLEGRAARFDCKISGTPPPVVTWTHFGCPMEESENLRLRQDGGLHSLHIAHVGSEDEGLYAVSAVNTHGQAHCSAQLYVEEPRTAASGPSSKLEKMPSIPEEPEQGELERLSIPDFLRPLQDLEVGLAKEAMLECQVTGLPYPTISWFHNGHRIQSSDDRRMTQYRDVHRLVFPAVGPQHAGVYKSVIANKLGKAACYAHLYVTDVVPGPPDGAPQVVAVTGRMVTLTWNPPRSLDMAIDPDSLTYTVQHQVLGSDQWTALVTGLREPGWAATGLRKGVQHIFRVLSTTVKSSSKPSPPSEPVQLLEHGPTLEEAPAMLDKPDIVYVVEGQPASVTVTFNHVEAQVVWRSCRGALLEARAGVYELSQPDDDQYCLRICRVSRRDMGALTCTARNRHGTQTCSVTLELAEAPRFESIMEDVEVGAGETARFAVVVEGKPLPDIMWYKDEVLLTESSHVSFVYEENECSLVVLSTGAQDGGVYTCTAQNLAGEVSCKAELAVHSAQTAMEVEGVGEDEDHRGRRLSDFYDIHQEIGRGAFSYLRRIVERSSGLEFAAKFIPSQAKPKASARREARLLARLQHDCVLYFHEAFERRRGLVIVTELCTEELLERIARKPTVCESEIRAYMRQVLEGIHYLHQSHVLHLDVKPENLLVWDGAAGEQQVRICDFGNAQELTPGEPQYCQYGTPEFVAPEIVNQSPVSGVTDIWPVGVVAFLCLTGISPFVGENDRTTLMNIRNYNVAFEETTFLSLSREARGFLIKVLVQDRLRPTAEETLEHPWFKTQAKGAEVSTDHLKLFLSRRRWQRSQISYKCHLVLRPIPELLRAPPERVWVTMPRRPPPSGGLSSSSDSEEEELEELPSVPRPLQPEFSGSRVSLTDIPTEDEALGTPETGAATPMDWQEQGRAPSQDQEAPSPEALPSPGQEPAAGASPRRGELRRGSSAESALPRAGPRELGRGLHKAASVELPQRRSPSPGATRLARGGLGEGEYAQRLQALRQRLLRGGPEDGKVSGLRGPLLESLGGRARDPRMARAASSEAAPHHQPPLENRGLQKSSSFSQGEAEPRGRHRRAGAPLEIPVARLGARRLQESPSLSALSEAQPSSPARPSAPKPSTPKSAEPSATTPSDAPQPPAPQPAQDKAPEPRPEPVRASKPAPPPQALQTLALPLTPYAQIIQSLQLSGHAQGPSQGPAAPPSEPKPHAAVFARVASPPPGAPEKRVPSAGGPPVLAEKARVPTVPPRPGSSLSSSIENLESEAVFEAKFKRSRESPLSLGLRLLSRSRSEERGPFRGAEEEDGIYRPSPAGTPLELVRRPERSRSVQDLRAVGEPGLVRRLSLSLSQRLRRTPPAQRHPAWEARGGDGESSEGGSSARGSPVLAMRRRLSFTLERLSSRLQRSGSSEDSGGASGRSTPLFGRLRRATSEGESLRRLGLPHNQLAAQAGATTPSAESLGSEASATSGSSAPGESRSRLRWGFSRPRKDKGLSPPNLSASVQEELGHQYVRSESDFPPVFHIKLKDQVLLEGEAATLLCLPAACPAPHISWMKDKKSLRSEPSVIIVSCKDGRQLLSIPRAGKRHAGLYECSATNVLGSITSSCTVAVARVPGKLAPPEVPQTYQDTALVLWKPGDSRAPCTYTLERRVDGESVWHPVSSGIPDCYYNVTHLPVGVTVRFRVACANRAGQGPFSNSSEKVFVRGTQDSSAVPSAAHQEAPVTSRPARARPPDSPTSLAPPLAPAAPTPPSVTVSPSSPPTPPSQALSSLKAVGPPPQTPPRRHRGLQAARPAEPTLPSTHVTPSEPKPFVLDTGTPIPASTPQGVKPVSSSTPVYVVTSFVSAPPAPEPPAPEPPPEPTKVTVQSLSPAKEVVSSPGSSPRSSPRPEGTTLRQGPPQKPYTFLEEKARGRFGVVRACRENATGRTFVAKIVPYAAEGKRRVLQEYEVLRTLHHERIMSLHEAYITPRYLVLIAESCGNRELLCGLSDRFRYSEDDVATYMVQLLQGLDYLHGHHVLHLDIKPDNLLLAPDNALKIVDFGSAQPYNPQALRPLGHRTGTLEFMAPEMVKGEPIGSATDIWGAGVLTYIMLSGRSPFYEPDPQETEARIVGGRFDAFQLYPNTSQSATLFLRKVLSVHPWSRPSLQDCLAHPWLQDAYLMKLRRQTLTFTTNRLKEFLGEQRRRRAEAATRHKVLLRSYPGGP
CDC7 cell division cycle 7-like 1 (CDC7L1), sequence (O00311 whole entry): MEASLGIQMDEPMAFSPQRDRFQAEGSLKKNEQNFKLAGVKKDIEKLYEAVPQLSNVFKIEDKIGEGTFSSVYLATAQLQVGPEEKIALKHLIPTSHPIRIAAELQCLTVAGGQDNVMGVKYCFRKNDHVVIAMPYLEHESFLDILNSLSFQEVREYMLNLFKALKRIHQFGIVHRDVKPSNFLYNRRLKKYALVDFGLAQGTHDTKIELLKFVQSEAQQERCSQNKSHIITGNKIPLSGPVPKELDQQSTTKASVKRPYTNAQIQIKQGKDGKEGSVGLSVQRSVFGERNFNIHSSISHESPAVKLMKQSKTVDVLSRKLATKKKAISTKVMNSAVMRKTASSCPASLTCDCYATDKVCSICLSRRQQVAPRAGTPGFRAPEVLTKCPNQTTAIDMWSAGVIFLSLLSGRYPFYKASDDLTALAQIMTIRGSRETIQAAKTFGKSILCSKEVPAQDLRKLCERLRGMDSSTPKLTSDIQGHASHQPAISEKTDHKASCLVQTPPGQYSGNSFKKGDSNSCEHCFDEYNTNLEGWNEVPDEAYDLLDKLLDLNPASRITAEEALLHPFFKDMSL

“Aortic preferentially expressed gene 1 (APEG1) (from UniProt Q15772 1-3267) (enzyme)”: the percentage of phospho-synuclein, ELISA, PEAK-Syn cells transfected with kinase cDNA came to 8.9%.

“CDC7 cell division cycle 7-like 1 (CDC7L1) (from UniProt O00311 1-574) (enzyme)”: the percentage of phospho-synuclein, ELISA, PEAK-Syn cells transfected with kinase cDNA worked out at 8.9%. Regarding “G protein-coupled receptor kinase 6 (GRK6) (from UniProt P43250 1-576) (enzyme)”, the fold increase of phospho-synuclein, HEK-synuclein cells was 2 fold and the percent phospho-synuclein, ELISA, cells transfected with GPRK6 cDNA was 18.9%. Consider “Polo like kinase 2 (PLK2) (from UniProt Q9NYY3 1-685) (enzyme)”, for which the fold increase of percent phospho-synuclein, cells transfected with PLK2 cDNA came out at 4 fold; the fold increase of phospho-synuclein over untransfected cells, ELISA, 293-synuclein cells stood at 4.3 fold; the percent phospho-synuclein, ELISA, cells transfected with PLK2 cDNA is 33.2%. As to “Protein kinase, cGMP-dependent, regulatory, Type I (PRKG1) (from UniProt Q13976 2-671) (enzyme)”, the percentage of phospho-synuclein, ELISA, PEAK-Syn cells transfected with kinase cDNA was 8.9%.

These data come from US20080300206A1.
